Results taken from article doi:10.1101/699223 (bioRxiv, 2019).

B1: human BBS9 (Bardet-Biedl syndrome protein 9), wild type, Flag-tagged (natural protein, UniProt Q3SYG4 1-887, looked up)
chain: MSLFKARDWWSTILGDKEEFDQGCLCLANVDNSGNGQDKIIVGSFMGYLRIFSPHPAKTGDGAQAEDLLLEVDLRDPVLQVEVGKFVSGTEMLHLAVLHSRKLCVYSVSGTLGNVEHGNQCQMKLMYEHNLQRTACNMTYGSFGGVKGRDLICIQSMDGMLMVFEQESYAFGRFLPGFLLPGPLAYSSRTDSFLTVSSCQQVESYKYQVLAFATDADKRQETEQQKLGSGKRLVVDWTLNIGEQALDICIVSFNQSASSVFVLGERNFFCLKDNGQIRFMKKLDWSPSCFLPYCSVSEGTINTLIGNHNNMLHIYQDVTLKWATQLPHIPVAVRVGCLHDLKGVIVTLSDDGHLQCSYLGTDPSLFQAPNVQSRELNYDELDVEMKELQKIIKDVNKSQGVWPMTEREDDLNVSVVVSPNFDSVSQATDVEVGTDLVPSVTVKVTLQNRVILQKAKLSVYVQPPLELTCDQFTFEFMTPDLTRTVSFSVYLKRSYTPSELEGNAVVSYSRPTDRNPDGIPRVIQCKFRLPLKLICLPGQPSKTASHKITIDTNKSPVSLLSLFPGFASQSDDDQVNVMGFHFLGGARITVLASKTSQRYRIQSEQFEDLWLITNELILRLQEYFEKQGVKDFACSFSGSIPLQEYFELIDHHFELRINGEKLEELLSERAVQFRAIQRRLLARFKDKTPAPLQHLDTLLDGTYKQVIALADAVEENQGNLFQSFTRLKSATHLVILLIALWQKLSADQVAILEAAFLPLQEDTQELGWEETVDAAISHLLKTCLSKSSKEQALNLNSQLNIPKDTSQLKKHITLLCDRLSKGGRLCLSTDAAAPQTMVMPGGCTTIPESDLEERSVEQDSTELFTNHRHLTAETPRPEVSPLQGVSE
B3: human BBS2 (Bardet-Biedl syndrome protein 2), wild type, HPC4- and c-Myc-tagged (natural protein, UniProt Q9BXC9 1-721, looked up)
chain: MLLPVFTLKLRHKISPRMVAIGRYDGTHPCLAAATQTGKVFIHNPHTRNQHVSASRVFQSPLESDVSLLSINQAVSCLTAGVLNPELGYDALLVGTQTNLLAYDVYNNSDLFYREVADGANAIVLGTLGDISSPLAIIGGNCALQGFNHEGSDLFWTVTGDNVNSLALCDFDGDGKKELLVGSEDFDIRVFKEDEIVAEMTETEIVTSLCPMYGSRFGYALSNGTVGVYDKTSRYWRIKSKNHAMSIHAFDLNSDGVNELITGWSNGKVDARSDRTGEVIFKDNFSSAIAGVVEGDYRMDGHIQLICCSVDGEIRGYLPGTAEMRGNLMDTSAEQDLIRELSQKKQNLLLELRNYEENAKAELASPLNEADGHRGIIPANTRLHTTLSVSLGNETQTAHTELRISTSNDTIIRAVLIFAEGIFTGESHVVHPSIHNLSSSICIPIVPPKDVPVDLHLKAFVGYRSSTQFHVFESTRQLPRFSMYALTSLDPASEPISYVNFTIAERAQRVVVWLGQNFLLPEDTHIQNAPFQVCFTSLRNGGHLHIKIKLSGEITINTDDIDLAGDIIQSMASFFAIEDLQVEADFPVYFEELRKVLVKVDEYHSVHQKLSADMADHSNLIRSLLVGAEDARLMRDMKTMKSRYMELYDLNRDLLNGYKIRCNNHTELLGNLKAVNQAIQRAGRLRVGKPKNQVITACRDAIRSNNINTLFKIMRVGTASS

Tests used:
[1] = biological target: T1, human BBS2 R632P, c-Myc-tagged (human, UniProt Q9BXC9 1-721, R632P); test: co-IP
T1 sequence (looked up): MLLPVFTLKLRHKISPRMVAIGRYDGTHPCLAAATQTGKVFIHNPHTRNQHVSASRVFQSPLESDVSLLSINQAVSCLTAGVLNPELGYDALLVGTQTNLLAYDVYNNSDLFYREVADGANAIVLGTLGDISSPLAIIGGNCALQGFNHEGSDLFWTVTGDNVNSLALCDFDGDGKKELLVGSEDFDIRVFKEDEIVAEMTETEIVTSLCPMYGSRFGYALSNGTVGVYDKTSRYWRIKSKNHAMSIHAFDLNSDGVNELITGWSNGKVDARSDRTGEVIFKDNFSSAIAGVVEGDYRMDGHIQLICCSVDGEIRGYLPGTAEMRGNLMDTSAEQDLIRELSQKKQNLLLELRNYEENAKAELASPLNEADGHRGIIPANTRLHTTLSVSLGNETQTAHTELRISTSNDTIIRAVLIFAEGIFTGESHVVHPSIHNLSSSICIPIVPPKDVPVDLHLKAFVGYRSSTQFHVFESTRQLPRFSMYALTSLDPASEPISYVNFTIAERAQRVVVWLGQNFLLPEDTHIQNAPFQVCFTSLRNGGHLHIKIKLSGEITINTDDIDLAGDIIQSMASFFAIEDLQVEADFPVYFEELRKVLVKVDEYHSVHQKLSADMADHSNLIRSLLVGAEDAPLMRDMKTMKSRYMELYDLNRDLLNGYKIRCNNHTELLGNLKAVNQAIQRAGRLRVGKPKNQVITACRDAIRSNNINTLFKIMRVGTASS

[2] = biological target: B3; test: co-IP
[3] = biological target: B1; test: negative-stain EM reconstruction + cross-linking

Binder: B1
- reduction in binding relative to WT [1]: 70%

B2: human BBS9 G141R, Flag-tagged (natural protein, UniProt Q3SYG4 1-887, looked up)
chain: MSLFKARDWWSTILGDKEEFDQGCLCLANVDNSGNGQDKIIVGSFMGYLRIFSPHPAKTGDGAQAEDLLLEVDLRDPVLQVEVGKFVSGTEMLHLAVLHSRKLCVYSVSGTLGNVEHGNQCQMKLMYEHNLQRTACNMTYRSFGGVKGRDLICIQSMDGMLMVFEQESYAFGRFLPGFLLPGPLAYSSRTDSFLTVSSCQQVESYKYQVLAFATDADKRQETEQQKLGSGKRLVVDWTLNIGEQALDICIVSFNQSASSVFVLGERNFFCLKDNGQIRFMKKLDWSPSCFLPYCSVSEGTINTLIGNHNNMLHIYQDVTLKWATQLPHIPVAVRVGCLHDLKGVIVTLSDDGHLQCSYLGTDPSLFQAPNVQSRELNYDELDVEMKELQKIIKDVNKSQGVWPMTEREDDLNVSVVVSPNFDSVSQATDVEVGTDLVPSVTVKVTLQNRVILQKAKLSVYVQPPLELTCDQFTFEFMTPDLTRTVSFSVYLKRSYTPSELEGNAVVSYSRPTDRNPDGIPRVIQCKFRLPLKLICLPGQPSKTASHKITIDTNKSPVSLLSLFPGFASQSDDDQVNVMGFHFLGGARITVLASKTSQRYRIQSEQFEDLWLITNELILRLQEYFEKQGVKDFACSFSGSIPLQEYFELIDHHFELRINGEKLEELLSERAVQFRAIQRRLLARFKDKTPAPLQHLDTLLDGTYKQVIALADAVEENQGNLFQSFTRLKSATHLVILLIALWQKLSADQVAILEAAFLPLQEDTQELGWEETVDAAISHLLKTCLSKSSKEQALNLNSQLNIPKDTSQLKKHITLLCDRLSKGGRLCLSTDAAAPQTMVMPGGCTTIPESDLEERSVEQDSTELFTNHRHLTAETPRPEVSPLQGVSE
- reduction in binding relative to WT [2]: 70%

Binder: B3
- binding result [3]: binds
